Source: the supplement of paper PMC10724198
± gives the standard deviation of the averaged measurements.

Test system: Saccharomyces cerevisiae
Assay: protein stability index of tFT-peptide fusion (C-terminal peptide) (PSI (0-1 scale)); higher = more stable (slower turnover)
Settings: temperature: 30 C
Protocol: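 MPS profiling in S. cerevisiae of the yeast C-terminome library: the last 12 aa of each annotated ORF are fused to the C-terminus of a sfGFP-mCherry timer, after a GGGS linker. Cells are FACS-sorted into 8 mCherry/sfGFP bins and deep-sequenced. PSI runs from 0 (unstable) to 1 (stable); wild type and das1Δ backgrounds, two technical replicates each.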

[1] = genetic background: das1 deletion

“LCMSCGYVSAGK [YMR173W-A C-terminal 12 aa]” gave a protein stability index [1] of 0.697 ± 0.016 and a protein stability index (genetic background: wild type) of 0.749 ± 0.046.

EEARQEKSGQES [CRZ1 C-terminal 12 aa] showed a protein stability index [1] of 0.678 ± 0.048 and a protein stability index (genetic background: wild type) of 0.659 ± 0.011.

LMRRFVLEFEKQ [SEC6 C-terminal 12 aa] showed a protein stability index [1] of 0.716 ± 0.0098 and a protein stability index (genetic background: wild type) of 0.726 ± 0.021.

In the case of PLGEKFLNISNS [TEN1 C-terminal 12 aa], the protein stability index [1] is reported as 0.7047 ± 0.0035 and the protein stability index (genetic background: wild type) is reported as 0.694 ± 0.013.

In the case of QVHPSRQELSFT [DON1 C-terminal 12 aa], the protein stability index [1] is reported as 0.7176 ± 0.0016 and the protein stability index (genetic background: wild type) is reported as 0.701 ± 0.069.

Sequence EVAKSLTLQYDV [CNB1 C-terminal 12 aa] has a protein stability index [1] of 0.699 ± 0.0073 and a protein stability index (genetic background: wild type) of 0.68 ± 0.015.

Sequence SSGCRRLMVGYN [ERC1 C-terminal 12 aa] has a protein stability index [1] of 0.6979 ± 0.0017 and a protein stability index (genetic background: wild type) of 0.684 ± 0.0074.

IKAAIDRVDHSL [YKR018C C-terminal 12 aa] gave a protein stability index [1] of 0.6778 ± 0.0045 and a protein stability index (genetic background: wild type) of 0.692 ± 0.041.

For “HKGSHFYIQLPI [YAL034C-B C-terminal 12 aa]”, the protein stability index [1] was 0.7079 ± 0.0061 and the protein stability index (genetic background: wild type) was 0.677 ± 0.0077.

Work on LIDVVPRRPLPQ [HAP5 C-terminal 12 aa] yielded a protein stability index [1] of 0.734 ± 0.033 and a protein stability index (genetic background: wild type) of 0.723 ± 0.03.

LAPPPQKQSSSD [GRH1 C-terminal 12 aa] showed a protein stability index [1] of 0.758 ± 0.058 and a protein stability index (genetic background: wild type) of 0.729 ± 0.029.

“CLSGIGLFPVSS [YHL030W-A C-terminal 12 aa]” showed a protein stability index [1] of 0.6846 ± 0.0057 and a protein stability index (genetic background: wild type) of 0.69 ± 0.021.

Work on GKDRPSRFNSKK [TEX1 C-terminal 12 aa] yielded a protein stability index [1] of 0.693 ± 0.011 and a protein stability index (genetic background: wild type) of 0.667 ± 0.038.

For AMYDKITESQKK [CHD1 C-terminal 12 aa], the protein stability index [1] was 0.714 ± 0.027 and the protein stability index (genetic background: wild type) was 0.683 ± 0.0096.

With KLKRAKRKGISE [IMP21 C-terminal 12 aa] the protein stability index [1] was 0.693 ± 0.013 and the protein stability index (genetic background: wild type) was 0.692 ± 0.012.

INSQTMTVTTAL [VHC1 C-terminal 12 aa] was tested, and the protein stability index [1] was 0.685 ± 0.039 and the protein stability index (genetic background: wild type) was 0.69051 ± 0.00012.

KGDNITLITSAD [SME1 C-terminal 12 aa] showed a protein stability index [1] of 0.688 ± 0.0079 and a protein stability index (genetic background: wild type) of 0.685 ± 0.099.

Sequence YVKQQHGQSQND [EAF6 C-terminal 12 aa] has a protein stability index [1] of 0.695 ± 0.021 and a protein stability index (genetic background: wild type) of 0.694 ± 0.022.

With IKQRELNAADKC [MAL11 C-terminal 12 aa] the protein stability index [1] was 0.696 ± 0.0096 and the protein stability index (genetic background: wild type) was 0.6741 ± 0.0048.

In the case of DSFIPLQPKKKI [YML037C C-terminal 12 aa], the protein stability index [1] is reported as 0.684 ± 0.05 and the protein stability index (genetic background: wild type) is reported as 0.684 ± 0.015.

In the case of ALAASRAEQPPA [YCR049C C-terminal 12 aa], the protein stability index [1] is reported as 0.691 ± 0.0084 and the protein stability index (genetic background: wild type) is reported as 0.712 ± 0.012.

With VSDSEQSDTKGI [UAF30 C-terminal 12 aa] the protein stability index [1] was 0.6733 ± 0.0011 and the protein stability index (genetic background: wild type) was 0.676 ± 0.016.

With AFMMICEKLITL [SEC59 C-terminal 12 aa] the protein stability index [1] was 0.7062 ± 0.0011 and the protein stability index (genetic background: wild type) was 0.5394 ± 0.0032.

With EKKKIFKGNKTD [YLR030W C-terminal 12 aa] the protein stability index [1] was 0.696 ± 0.036 and the protein stability index (genetic background: wild type) was 0.669 ± 0.012.

Sequence KRKFLGEHRKTL [TOK1 C-terminal 12 aa] has a protein stability index [1] of 0.713 ± 0.01 and a protein stability index (genetic background: wild type) of 0.67338 ± 0.00061.

For RLWSRKEFRLGT [SNU71 C-terminal 12 aa], the protein stability index [1] was 0.7 ± 0.017 and the protein stability index (genetic background: wild type) was 0.7 ± 0.029.

Sequence LAFSGGLANSIA [DSE4 C-terminal 12 aa] has a protein stability index [1] of 0.712 ± 0.00097 and a protein stability index (genetic background: wild type) of 0.677 ± 0.024.

In the case of AAPQDINQQPNQ [LDS1 C-terminal 12 aa], the protein stability index [1] is reported as 0.727 ± 0.028 and the protein stability index (genetic background: wild type) is reported as 0.671 ± 0.0087.

For AWIADLDHTVQP [CHS6 C-terminal 12 aa], the protein stability index [1] was 0.718 ± 0.017 and the protein stability index (genetic background: wild type) was 0.708 ± 0.011.

QVTWHKHSPRIQ [YKL202W C-terminal 12 aa] showed a protein stability index [1] of 0.713 ± 0.024 and a protein stability index (genetic background: wild type) of 0.7036 ± 0.0056.

In the case of LECTPIINLFIV [MNL1 C-terminal 12 aa], the protein stability index [1] is reported as 0.644 ± 0.0069 and the protein stability index (genetic background: wild type) is reported as 0.13125 ± 2.3e-05.

DDPDENTALLGA [YDR338C C-terminal 12 aa] showed a protein stability index [1] of 0.7076 ± 0.0037 and a protein stability index (genetic background: wild type) of 0.711 ± 0.034.

In the case of RSHRKQPLKRKD [BRE5 C-terminal 12 aa], the protein stability index [1] is reported as 0.69 ± 0.025 and the protein stability index (genetic background: wild type) is reported as 0.645 ± 0.019.

For VASSTEQLLQEM [DYN1 C-terminal 12 aa], the protein stability index [1] was 0.67372 ± 0.00052 and the protein stability index (genetic background: wild type) was 0.693 ± 0.029.

LLDGGDGDEDAV [GON7 C-terminal 12 aa] was tested, and the protein stability index [1] was 0.6942 ± 0.002 and the protein stability index (genetic background: wild type) was 0.7 ± 0.036.

In the case of STFTLNLEDVSK [ECM12 C-terminal 12 aa], the protein stability index [1] is reported as 0.711 ± 0.0086 and the protein stability index (genetic background: wild type) is reported as 0.634 ± 0.016.

For RMVDKVEGSFSR [YDR109C C-terminal 12 aa], the protein stability index [1] was 0.7218 ± 0.0071 and the protein stability index (genetic background: wild type) was 0.701 ± 0.028.

GDTLYEEFGISK [ARO8 C-terminal 12 aa] showed a protein stability index [1] of 0.709 ± 0.0035 and a protein stability index (genetic background: wild type) of 0.712 ± 0.046.

Sequence FDIKKANSATLA [TMA46 C-terminal 12 aa] has a protein stability index [1] of 0.6584 ± 0.0037 and a protein stability index (genetic background: wild type) of 0.634 ± 0.019.

For HTSSKEIDLLSF [ENT3 C-terminal 12 aa], the protein stability index [1] was 0.721 ± 0.026 and the protein stability index (genetic background: wild type) was 0.7104 ± 0.0067.

In the case of GKEVRKLRPENQ [ILV5 C-terminal 12 aa], the protein stability index [1] is reported as 0.691 ± 0.014 and the protein stability index (genetic background: wild type) is reported as 0.654 ± 0.024.

In the case of NEQEINKIFEPE [HXT14 C-terminal 12 aa], the protein stability index [1] is reported as 0.694 ± 0.01 and the protein stability index (genetic background: wild type) is reported as 0.743 ± 0.052.

Work on SAMTSKVLSFFL [RRT7 C-terminal 12 aa] yielded a protein stability index [1] of 0.7094 ± 0.0069 and a protein stability index (genetic background: wild type) of 0.696 ± 0.019.

NEDLGLSDIKVE [ZPR1 C-terminal 12 aa] showed a protein stability index [1] of 0.694 ± 0.0078 and a protein stability index (genetic background: wild type) of 0.68742 ± 0.00015.

For TPLGPKPDIRPL [ECM4 C-terminal 12 aa], the protein stability index [1] was 0.727 ± 0.03 and the protein stability index (genetic background: wild type) was 0.67 ± 0.016.

For LDISASLEKIAT [FMP52 C-terminal 12 aa], the protein stability index [1] was 0.677 ± 0.018 and the protein stability index (genetic background: wild type) was 0.682 ± 0.011.

MRIRSDMSMMRW [COR1 C-terminal 12 aa] was tested, and the protein stability index [1] was 0.71 ± 0.0094 and the protein stability index (genetic background: wild type) was 0.7133 ± 0.0025.

TPSKEINFDDDF [RNR4 C-terminal 12 aa] gave a protein stability index [1] of 0.72 ± 0.011 and a protein stability index (genetic background: wild type) of 0.723 ± 0.041.

IYKYCCCCFCCC [YCK3 C-terminal 12 aa] gave a protein stability index [1] of 0.6598 ± 0.0038 and a protein stability index (genetic background: wild type) of 0.594 ± 0.046.

In the case of KTVGKLVLEIPQ [ZTA1 C-terminal 12 aa], the protein stability index [1] is reported as 0.689 ± 0.033 and the protein stability index (genetic background: wild type) is reported as 0.701 ± 0.051.

In the case of WAKRAFDGQFVK [DAP2 C-terminal 12 aa], the protein stability index [1] is reported as 0.717 ± 0.0086 and the protein stability index (genetic background: wild type) is reported as 0.735 ± 0.017.

Work on QGQKFIHDNNTN [YMR245W C-terminal 12 aa] yielded a protein stability index [1] of 0.673 ± 0.031 and a protein stability index (genetic background: wild type) of 0.646 ± 0.018.

RLRAKSPYAWDD [YHK8 C-terminal 12 aa] showed a protein stability index [1] of 0.729 ± 0.0089 and a protein stability index (genetic background: wild type) of 0.721 ± 0.053.

Work on SSKKNNKFRRIR [CST9 C-terminal 12 aa] yielded a protein stability index [1] of 0.685 ± 0.019 and a protein stability index (genetic background: wild type) of 0.714 ± 0.032.

In the case of LLKQLKQGKISV [NOT3 C-terminal 12 aa], the protein stability index [1] is reported as 0.669 ± 0.022 and the protein stability index (genetic background: wild type) is reported as 0.6481 ± 0.0033.

KWQARQRGLQRF [PMP1 C-terminal 12 aa] showed a protein stability index [1] of 0.69535 ± 0.00066 and a protein stability index (genetic background: wild type) of 0.704 ± 0.018.

QNDRRSVLKKYI [YER010C C-terminal 12 aa] was tested, and the protein stability index [1] was 0.69 ± 0.025 and the protein stability index (genetic background: wild type) was 0.666 ± 0.021.

Sequence SDEGHAHEDCAK [LOG1 C-terminal 12 aa] has a protein stability index [1] of 0.679 ± 0.011 and a protein stability index (genetic background: wild type) of 0.669 ± 0.015.

EWSFASSGYKDD [PPN1 C-terminal 12 aa] showed a protein stability index [1] of 0.7115 ± 0.0032 and a protein stability index (genetic background: wild type) of 0.794 ± 0.041.

In the case of ETNNVFQDAILR [DOC1 C-terminal 12 aa], the protein stability index [1] is reported as 0.698 ± 0.013 and the protein stability index (genetic background: wild type) is reported as 0.683 ± 0.017.

With VRQVEEDENYDD [CYC8 C-terminal 12 aa] the protein stability index [1] was 0.7 ± 0.024 and the protein stability index (genetic background: wild type) was 0.748 ± 0.076.
